Legend:
c-Src SH2 = test: SH2 binding enrichment of the phosphorylated peptide, bacterial display (enrichment ratio); higher = better substrate or ligand; peptides without Tyr show the background
Grb2 SH2 = Grb2 SH2 (UniProt P62993); test: as above
SHP2-C SH2 = test: as above
Hck = Hck (UniProt P08631); test: phosphorylation enrichment, bacterial display (enrichment ratio); higher = better substrate or ligand; peptides without Tyr show the background
FGFR1 = FGFR1 (UniProt P11362); test: as above
Fes = Fes (UniProt P07332); test: as above
c-Src = test: as above
FGFR3 = FGFR3 (UniProt P22607); test: as above
c-Abl (mouse) = test: as above
Fyn = Fyn (UniProt P06241); test: as above
EPHB1 = EPHB1 (UniProt P54762); test: as above
Fer (mouse) = test: as above
MERTK = MERTK (UniProt Q12866); test: as above
EPHB2 = EPHB2 (UniProt P29323); test: as above
Jak2 = Jak2 (UniProt O60674); test: as above
AncSZ = test: as above
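Throughout, for SH2 binding enrichment of the phosphorylated peptide, bacterial display: peptide library displayed on the E. coli surface as eCPX fusions, selected cells deep-sequenced, score is each peptide's frequency after selection divided by its frequency in the input.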
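Throughout, for phosphorylation enrichment, bacterial display: 11-residue human phosphosite peptides and single-mutation variants displayed on the E. coli surface, counted by deep sequencing, each peptide's frequency after selection divided by its frequency in the unselected input library; frequency after pTyr selection over input frequency; kinase dosed for 20-30% of maximal phosphorylation in three min.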

Fes, sequence (P07332 whole entry, looked up): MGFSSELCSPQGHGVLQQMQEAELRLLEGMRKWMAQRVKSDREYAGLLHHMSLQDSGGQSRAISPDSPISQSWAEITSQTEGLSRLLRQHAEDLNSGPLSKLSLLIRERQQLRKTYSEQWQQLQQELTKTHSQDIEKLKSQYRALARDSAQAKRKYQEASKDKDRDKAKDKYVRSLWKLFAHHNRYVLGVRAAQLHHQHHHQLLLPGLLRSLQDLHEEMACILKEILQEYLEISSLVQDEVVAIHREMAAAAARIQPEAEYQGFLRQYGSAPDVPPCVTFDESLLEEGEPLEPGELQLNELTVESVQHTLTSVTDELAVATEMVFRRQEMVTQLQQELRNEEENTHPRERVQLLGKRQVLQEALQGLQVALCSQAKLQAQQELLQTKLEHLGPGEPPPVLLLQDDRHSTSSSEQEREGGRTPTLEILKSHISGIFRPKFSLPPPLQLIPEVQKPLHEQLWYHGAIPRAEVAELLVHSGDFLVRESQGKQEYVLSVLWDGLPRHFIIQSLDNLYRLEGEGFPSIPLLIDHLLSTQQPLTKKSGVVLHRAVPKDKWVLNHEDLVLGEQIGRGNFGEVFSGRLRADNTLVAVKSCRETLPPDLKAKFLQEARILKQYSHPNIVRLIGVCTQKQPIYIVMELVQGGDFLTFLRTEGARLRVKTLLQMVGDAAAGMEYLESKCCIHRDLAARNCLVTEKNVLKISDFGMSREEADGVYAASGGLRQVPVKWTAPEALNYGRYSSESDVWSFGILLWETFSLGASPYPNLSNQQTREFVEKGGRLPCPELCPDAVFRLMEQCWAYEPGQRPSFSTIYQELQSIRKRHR
Fyn, sequence (P06241 whole entry, looked up): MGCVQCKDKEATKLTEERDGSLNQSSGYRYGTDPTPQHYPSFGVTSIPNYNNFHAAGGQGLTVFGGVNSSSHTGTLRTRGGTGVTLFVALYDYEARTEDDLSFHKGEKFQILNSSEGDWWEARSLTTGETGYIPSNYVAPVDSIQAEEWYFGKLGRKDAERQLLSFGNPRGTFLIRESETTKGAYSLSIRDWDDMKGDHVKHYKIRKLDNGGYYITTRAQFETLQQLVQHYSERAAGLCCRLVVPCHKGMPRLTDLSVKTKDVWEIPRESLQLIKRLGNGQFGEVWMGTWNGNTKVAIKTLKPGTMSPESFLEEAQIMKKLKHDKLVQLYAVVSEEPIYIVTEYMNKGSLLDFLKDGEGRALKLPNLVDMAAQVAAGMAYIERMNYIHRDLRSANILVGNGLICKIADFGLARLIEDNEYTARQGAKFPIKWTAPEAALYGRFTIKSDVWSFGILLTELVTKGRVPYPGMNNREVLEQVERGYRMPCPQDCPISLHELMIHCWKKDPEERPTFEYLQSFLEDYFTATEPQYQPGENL
EPHB2, sequence (P29323 whole entry, looked up): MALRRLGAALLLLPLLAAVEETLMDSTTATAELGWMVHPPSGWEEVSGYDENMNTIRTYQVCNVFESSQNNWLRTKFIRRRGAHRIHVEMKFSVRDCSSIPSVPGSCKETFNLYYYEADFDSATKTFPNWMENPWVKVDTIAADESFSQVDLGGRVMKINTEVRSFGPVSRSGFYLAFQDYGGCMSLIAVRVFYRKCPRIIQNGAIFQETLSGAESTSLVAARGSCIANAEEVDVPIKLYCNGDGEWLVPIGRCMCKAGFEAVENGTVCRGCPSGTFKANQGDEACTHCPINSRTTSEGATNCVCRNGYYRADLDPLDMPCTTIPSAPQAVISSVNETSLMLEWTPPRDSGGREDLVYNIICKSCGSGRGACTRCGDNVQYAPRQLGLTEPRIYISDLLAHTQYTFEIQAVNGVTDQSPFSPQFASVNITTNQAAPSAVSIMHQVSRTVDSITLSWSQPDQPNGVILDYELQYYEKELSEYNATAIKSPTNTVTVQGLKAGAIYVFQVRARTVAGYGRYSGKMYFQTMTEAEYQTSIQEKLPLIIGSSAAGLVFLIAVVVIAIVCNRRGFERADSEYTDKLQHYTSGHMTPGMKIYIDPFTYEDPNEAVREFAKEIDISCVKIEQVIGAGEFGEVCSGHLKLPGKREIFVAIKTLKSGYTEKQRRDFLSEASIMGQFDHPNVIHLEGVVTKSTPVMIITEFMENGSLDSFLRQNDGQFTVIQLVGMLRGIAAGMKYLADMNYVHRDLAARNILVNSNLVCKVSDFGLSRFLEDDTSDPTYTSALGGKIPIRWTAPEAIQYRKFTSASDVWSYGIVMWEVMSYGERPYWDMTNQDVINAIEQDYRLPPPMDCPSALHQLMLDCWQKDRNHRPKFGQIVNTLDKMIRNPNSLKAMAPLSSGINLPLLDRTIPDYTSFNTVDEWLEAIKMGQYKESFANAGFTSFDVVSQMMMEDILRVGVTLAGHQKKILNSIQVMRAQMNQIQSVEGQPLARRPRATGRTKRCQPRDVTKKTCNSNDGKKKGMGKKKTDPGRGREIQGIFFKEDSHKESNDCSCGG
Jak2, sequence (O60674 whole entry, looked up): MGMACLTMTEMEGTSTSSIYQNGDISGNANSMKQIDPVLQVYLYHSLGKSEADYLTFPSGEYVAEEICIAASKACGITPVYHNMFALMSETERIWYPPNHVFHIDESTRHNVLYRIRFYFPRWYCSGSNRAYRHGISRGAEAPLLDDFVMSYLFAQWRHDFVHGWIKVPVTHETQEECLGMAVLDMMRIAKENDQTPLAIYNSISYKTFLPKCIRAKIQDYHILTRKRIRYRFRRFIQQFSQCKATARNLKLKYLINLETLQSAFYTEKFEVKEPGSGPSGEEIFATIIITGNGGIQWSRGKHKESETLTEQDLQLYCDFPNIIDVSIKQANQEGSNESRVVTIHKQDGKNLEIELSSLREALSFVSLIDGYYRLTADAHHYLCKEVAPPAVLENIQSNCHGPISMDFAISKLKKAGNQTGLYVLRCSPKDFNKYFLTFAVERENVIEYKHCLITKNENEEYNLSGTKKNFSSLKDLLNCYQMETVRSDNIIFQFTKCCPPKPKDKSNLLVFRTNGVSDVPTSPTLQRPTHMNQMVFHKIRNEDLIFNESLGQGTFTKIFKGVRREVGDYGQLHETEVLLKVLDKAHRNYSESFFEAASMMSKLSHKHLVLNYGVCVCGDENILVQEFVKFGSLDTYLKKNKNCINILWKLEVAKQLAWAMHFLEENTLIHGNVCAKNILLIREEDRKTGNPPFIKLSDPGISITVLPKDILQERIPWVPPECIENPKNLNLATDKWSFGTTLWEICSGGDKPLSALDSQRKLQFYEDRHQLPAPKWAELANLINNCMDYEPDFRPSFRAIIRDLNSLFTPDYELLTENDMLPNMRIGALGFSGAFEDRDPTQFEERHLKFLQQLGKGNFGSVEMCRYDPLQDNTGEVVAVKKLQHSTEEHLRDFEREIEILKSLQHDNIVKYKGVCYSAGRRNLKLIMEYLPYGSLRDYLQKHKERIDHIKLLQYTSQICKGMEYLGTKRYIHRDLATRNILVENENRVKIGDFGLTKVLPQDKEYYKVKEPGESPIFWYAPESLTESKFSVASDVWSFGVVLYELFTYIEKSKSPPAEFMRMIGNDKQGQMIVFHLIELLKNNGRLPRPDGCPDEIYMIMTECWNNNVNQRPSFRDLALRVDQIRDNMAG
FGFR3, sequence (P22607 whole entry, looked up): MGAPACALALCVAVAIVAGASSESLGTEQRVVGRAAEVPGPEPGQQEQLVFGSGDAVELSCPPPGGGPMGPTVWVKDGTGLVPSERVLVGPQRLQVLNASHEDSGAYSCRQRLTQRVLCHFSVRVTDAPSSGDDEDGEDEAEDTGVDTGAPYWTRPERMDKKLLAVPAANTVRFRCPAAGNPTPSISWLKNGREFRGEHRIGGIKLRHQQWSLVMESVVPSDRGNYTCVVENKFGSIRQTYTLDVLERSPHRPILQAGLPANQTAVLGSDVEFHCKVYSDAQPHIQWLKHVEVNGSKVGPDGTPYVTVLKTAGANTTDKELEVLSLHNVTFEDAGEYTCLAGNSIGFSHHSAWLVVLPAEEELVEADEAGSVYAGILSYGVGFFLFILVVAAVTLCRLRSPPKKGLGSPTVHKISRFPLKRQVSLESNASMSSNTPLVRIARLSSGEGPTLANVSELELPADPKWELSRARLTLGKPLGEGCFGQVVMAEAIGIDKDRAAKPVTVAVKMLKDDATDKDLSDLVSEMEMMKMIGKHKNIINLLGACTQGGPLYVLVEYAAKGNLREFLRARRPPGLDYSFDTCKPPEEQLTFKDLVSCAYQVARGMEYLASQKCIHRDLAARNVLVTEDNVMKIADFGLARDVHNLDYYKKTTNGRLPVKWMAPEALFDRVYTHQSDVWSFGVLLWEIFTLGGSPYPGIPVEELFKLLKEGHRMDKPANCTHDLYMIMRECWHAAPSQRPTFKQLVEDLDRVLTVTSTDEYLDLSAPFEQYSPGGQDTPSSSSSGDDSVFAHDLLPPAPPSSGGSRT
Hck, sequence (P08631 whole entry, looked up): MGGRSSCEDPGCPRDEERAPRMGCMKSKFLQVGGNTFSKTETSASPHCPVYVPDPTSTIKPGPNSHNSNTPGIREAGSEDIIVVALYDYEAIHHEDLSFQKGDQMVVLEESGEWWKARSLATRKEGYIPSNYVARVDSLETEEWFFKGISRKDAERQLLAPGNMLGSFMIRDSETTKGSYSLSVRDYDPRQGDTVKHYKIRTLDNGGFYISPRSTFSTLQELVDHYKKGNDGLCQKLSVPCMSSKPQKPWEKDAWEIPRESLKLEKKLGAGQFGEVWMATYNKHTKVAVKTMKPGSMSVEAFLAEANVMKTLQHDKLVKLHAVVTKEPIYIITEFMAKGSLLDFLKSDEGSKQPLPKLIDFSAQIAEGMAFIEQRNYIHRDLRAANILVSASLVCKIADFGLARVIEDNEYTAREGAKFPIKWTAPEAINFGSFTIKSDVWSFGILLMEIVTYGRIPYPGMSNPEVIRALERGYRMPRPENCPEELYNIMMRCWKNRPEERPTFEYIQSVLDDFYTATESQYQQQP

Sequence | SH2 binding enrichment (c-Src SH2) | SH2 binding enrichment (Grb2 SH2) | SH2 binding enrichment (SHP2-C SH2) | phosphorylation enrichment (Hck) | phosphorylation enrichment (FGFR1) | phosphorylation enrichment (Fes) | phosphorylation enrichment (c-Src) | phosphorylation enrichment (FGFR3) | phosphorylation enrichment (c-Abl (mouse)) | phosphorylation enrichment (Fyn) | phosphorylation enrichment (EPHB1) | phosphorylation enrichment (Fer (mouse)) | phosphorylation enrichment (MERTK) | phosphorylation enrichment (EPHB2) | phosphorylation enrichment (Jak2) | phosphorylation enrichment (AncSZ)
FPPDGYSRHFE [CTNND1_Y213_YF] | 0.424 | 0.818 | 0.738 | 0.408 | 0.398 | 0.676 | 0.472 | 0.603 | 0.493 | 0.435 | 0.363 | 0.349 | 0.372 | 0.373 | 0.62 | 0.606
VSFGEYRFRSV [CFTR_Y515_D513G_YF] | 0.528 | 0.792 | 0.9 | 0.469 | 0.523 | 0.801 | 0.489 | 0.513 | 0.672 | 0.356 | 0.431 | 0.402 | 0.395 | 0.443 | 0.574 | 0.668
AIIEEYLHLSD [EIF4G1_Y1253_N1257S] | 0.561 | 0.749 | 0.752 | 0.655 | 0.592 | 1.4 | 0.458 | 0.838 | 0.885 | 0.635 | 0.714 | 0.6 | 0.515 | 0.698 | 1.19 | 1.24
YRVAGYETQGG [TIA1_Y383] | 0.391 | 0.608 | 0.58 | 0.37 | 0.399 | 0.646 | 0.295 | 0.352 | 0.906 | 0.378 | 0.329 | 0.351 | 0.324 | 0.338 | 0.392 | 0.436
GMRHGYGVRQS [JPH2_Y141] | 1.15 | 1.53 | 1.41 | 0.36 | 0.355 | 0.556 | 0.326 | 0.405 | 0.668 | 0.369 | 0.38 | 0.328 | 0.384 | 0.373 | 0.457 | 0.451
ELTAKYLNFFR [P3H4_Y181_Q186R_YF] | 0.832 | 2.78 | 1.14 | 0.456 | 0.394 | 0.778 | 0.366 | 0.513 | 0.574 | 0.444 | 0.414 | 0.335 | 0.435 | 0.425 | 0.632 | 0.684
VQVAYYTMMMN [SPATA17_Y84] | 1.56 | 1.21 | 1.56 | 1.65 | 8.59 | 1.54 | 2.56 | 6.58 | 1.15 | 1.48 | 2.52 | 3.67 | 6.47 | 1.17 | 4.11 | 1.81
TWSPKYTLRSH [STRN3_Y474_N471S] | 1.2 | 1.28 | 1.16 | 0.419 | 0.353 | 0.87 | 0.348 | 0.529 | 0.52 | 0.445 | 0.593 | 0.389 | 0.426 | 0.477 | 0.728 | 0.735
QPSALYEDRYL [ASS1_Y83_S79P] | 0.984 | 0.918 | 0.461 | 3.92 | 0.529 | 1.06 | 0.942 | 0.625 | 0.681 | 0.946 | 1.67 | 6.74 | 0.78 | 1.16 | 1.04 | 0.93
LKRIAYFLCLL [LGI1_Y21] | 1.23 | 1.4 | 1.18 | 0.394 | 0.696 | 1.53 | 0.484 | 0.741 | 0.821 | 0.506 | 0.64 | 0.714 | 0.424 | 0.536 | 1.09 | 1.05
TVQVAYFTVMM [SPATA17_Y83_M86V_YF] | 0.415 | 0.775 | 0.651 | 0.61 | 0.729 | 1.55 | 0.666 | 1.09 | 0.921 | 0.595 | 0.838 | 0.842 | 0.486 | 0.758 | 1.3 | 1.44
VPLLEYYWDIF [CDAN1_Y712_R714W] | 1.12 | 1.54 | 1.08 | 0.813 | 7.97 | 1.46 | 1.67 | 6.87 | 0.923 | 0.879 | 2.27 | 0.521 | 1.54 | 1.54 | 2.12 | 1.43
STEAIYWRYSK [SH3PXD2B_Y42_R43W] | 0.355 | 0.752 | 0.551 | 3.66 | 1.54 | 1.28 | 3.47 | 1.53 | 8.71 | 4.84 | 1.44 | 0.502 | 1.34 | 1.39 | 1.26 | 1.33
DEDYLYREELA [POR_Y575] | 0.501 | 0.904 | 0.881 | 0.642 | 0.814 | 1.36 | 0.535 | 1.18 | 0.903 | 0.579 | 0.71 | 0.61 | 0.502 | 0.647 | 1.25 | 1.61
FDKPVYQKTTE [LDLR_Y828_N825K] | 0.563 | 0.811 | 0.557 | 0.436 | 0.518 | 0.739 | 0.506 | 0.57 | 0.606 | 0.472 | 0.452 | 0.451 | 0.473 | 0.475 | 0.691 | 0.684
EEQKKNFNAMK [SCN5A_Y1494_Y1494N_YF] | 0.474 | 0.895 | 0.644 | 0.512 | 0.38 | 0.711 | 0.385 | 0.546 | 0.607 | 0.376 | 0.381 | 0.369 | 0.409 | 0.494 | 0.691 | 0.908
KWRGQYDVAIR [BTK_Y425_K430R] | 1.74 | 1.35 | 1.57 | 0.451 | 0.426 | 0.698 | 0.389 | 0.533 | 0.539 | 0.446 | 0.498 | 0.512 | 0.341 | 0.454 | 0.461 | 0.96

Sequence | SH2 binding enrichment (c-Src SH2) | SH2 binding enrichment (Grb2 SH2) | SH2 binding enrichment (SHP2-C SH2) | phosphorylation enrichment (Hck) | phosphorylation enrichment (FGFR1) | phosphorylation enrichment (Fes) | phosphorylation enrichment (c-Src) | phosphorylation enrichment (FGFR3) | phosphorylation enrichment (c-Abl (mouse)) | phosphorylation enrichment (Fyn) | phosphorylation enrichment (EPHB1) | phosphorylation enrichment (Fer (mouse)) | phosphorylation enrichment (MERTK) | phosphorylation enrichment (EPHB2) | phosphorylation enrichment (Jak2) | phosphorylation enrichment (AncSZ)
CTTTHYNFMCN [TP53_Y234_I232T_YF] | 3.48 | 1.27 | 1.79 | 0.469 | 0.403 | 0.758 | 0.375 | 0.557 | 0.484 | 0.437 | 0.397 | 0.466 | 0.393 | 0.427 | 0.561 | 0.758
DCAAIYGNEPE [AKR1A1_Y50] | 0.72 | 0.966 | 0.689 | 0.897 | 0.588 | 1.22 | 1.42 | 0.734 | 0.799 | 1.02 | 0.612 | 0.672 | 0.806 | 0.694 | 1.42 | 1.27
SVTCTYSPGLN [TP53_Y126_A129G] | 0.444 | 0.723 | 0.469 | 0.595 | 0.511 | 1.57 | 0.612 | 0.998 | 1.05 | 0.525 | 0.761 | 0.609 | 0.454 | 0.686 | 1.46 | 1.42
EQYELHCEMGS [CBL_Y371_Y371H] | 0.611 | 0.815 | 0.859 | 0.498 | 0.538 | 1.18 | 0.61 | 0.818 | 0.82 | 0.491 | 0.682 | 0.915 | 0.476 | 0.63 | 1.03 | 1.33
YSKTQYNQVPR [CXADR_Y318_S323R] | 0.589 | 0.974 | 0.533 | 0.487 | 0.421 | 0.542 | 0.462 | 0.532 | 0.465 | 0.319 | 0.315 | 0.471 | 0.514 | 0.431 | 0.451 | 0.531
LPSKDYAEVGR [HP_Y272] | 2.68 | 0.766 | 0.717 | 0.951 | 0.918 | 2.22 | 0.709 | 0.895 | 0.726 | 0.735 | 1.15 | 0.801 | 0.801 | 1.24 | 0.684 | 0.654
IPTPAYQSLPA [PDCD6IP_Y727_S730L] | 1.18 | 0.707 | 0.876 | 0.941 | 0.497 | 0.624 | 0.416 | 0.711 | 0.546 | 0.467 | 0.506 | 0.341 | 0.898 | 0.501 | 0.616 | 0.652
LICRRYLVMQR [IL3RA_Y328_V323L] | 0.414 | 0.695 | 0.675 | 0.729 | 0.926 | 2.01 | 1.01 | 0.834 | 1.22 | 0.564 | 0.827 | 0.956 | 1.01 | 1.72 | 2.35 | 2.5
LRGEDYGFSVD [PRKCI_Y430] | 0.42 | 0.697 | 0.675 | 0.58 | 0.587 | 1.35 | 0.512 | 0.835 | 1.12 | 0.518 | 0.686 | 0.636 | 0.623 | 0.668 | 1 | 1.1
GRVFVYRLSEQ [ITGAE_Y551_YF] | 0.857 | 1.38 | 1.87 | 0.492 | 0.553 | 1.02 | 0.585 | 0.663 | 0.655 | 0.534 | 0.494 | 0.425 | 0.404 | 0.511 | 0.927 | 0.81
VHFLVYHHHHH [CACNA1H_Y519_H516Y_YF] | 0.791 | 1.21 | 0.755 | 0.416 | 0.437 | 1.11 | 0.453 | 0.834 | 0.863 | 0.527 | 0.555 | 0.493 | 0.388 | 0.661 | 1.11 | 0.88
FLTLHYDAKPQ [ANG_Y38_Q36L] | 0.653 | 0.783 | 0.844 | 0.462 | 0.532 | 0.983 | 0.312 | 0.575 | 0.501 | 0.449 | 0.505 | 0.328 | 0.301 | 0.426 | 0.669 | 0.912
EQLGEYKFQNA [ALB_Y425] | 0.518 | 0.793 | 0.416 | 0.415 | 0.471 | 0.77 | 0.367 | 0.5 | 0.774 | 0.394 | 0.461 | 0.351 | 0.324 | 0.415 | 0.715 | 0.824
LLVVLCKFRCF [PSEN1_Y154_Y154C_YF] | 1.57 | 1.82 | 1.84 | 0.887 | 0.648 | 1.73 | 1.48 | 0.999 | 1.23 | 0.731 | 0.619 | 0.722 | 0.984 | 0.694 | 1.82 | 1.4
RTLSEYARRHV [RERE_Y1259_P1262R] | 0.448 | 0.826 | 0.567 | 0.461 | 0.393 | 0.629 | 0.446 | 0.494 | 2.14 | 0.338 | 0.353 | 0.404 | 0.572 | 0.373 | 0.596 | 0.613
TCRPPYFHRNC [HGD_Y333_F329C_YF] | 1 | 1.45 | 0.9 | 0.548 | 0.255 | 1.06 | 0.314 | 0.568 | 0.878 | 0.4 | 0.215 | 0.334 | 0.758 | 0.686 | 0.914 | 1.05
